Experiment [1] has as its target HLA-B*27:03. Description: IEDB peptide-MHC binding, purified MHC/direct/fluorescence; filed as Kd, often an IC50 or EC50 that approximates it; ≥ and ≤ were set here for values at or beyond the usual limits of such assays. To be noted: source organism: Vibrio parahaemolyticus AQ3810.
For experiment [2], the target named is HLA-A*24:03. The description is as above. The following applies: source organism: Vibrio parahaemolyticus AQ3810.
For experiment [3], the target named is HLA-B*18:01. Described as above. To be noted: source organism: Vibrio parahaemolyticus AQ3810.
For experiment [4], the target named is HLA-A*02:01. The experiment is described as above. To be noted: source organism: Vibrio parahaemolyticus AQ3810.
Experiment [5] concerns the target HLA-B*15:17. Described as above. The following applies: source organism: Vibrio parahaemolyticus AQ3810.
Experiment [6] has as its target HLA-A*02:06. The description is as above. To be noted: source organism: Vibrio parahaemolyticus AQ3810.
Experiment [7] deals with HLA-A*26:01. The experiment is described as above. To be noted: source organism: Vibrio parahaemolyticus AQ3810.
The target of experiment [8] is HLA-B*57:01. The experiment is described as above. To be noted: source organism: Vibrio parahaemolyticus AQ3810.
Experiment [9] has as its target HLA-B*15:01. Described as above. To be noted: source organism: Vibrio parahaemolyticus AQ3810.
The target of experiment [10] is HLA-A*29:02. The description is as above. To be noted: source organism: Vibrio parahaemolyticus AQ3810.
In experiment [11] the target is HLA-A*02:19. The description is as above. The following applies: source organism: Vibrio parahaemolyticus AQ3810.
Experiment [12] concerns the target HLA-A*69:01. Described as above. The following applies: source organism: Vibrio parahaemolyticus AQ3810.
Experiment [13] has as its target HLA-B*46:01. The experiment is described as above. The following applies: source organism: Vibrio parahaemolyticus AQ3810.
For experiment [14], the target named is HLA-A*23:01. The description is as above. The following applies: source organism: Vibrio parahaemolyticus AQ3810.
The target of experiment [15] is HLA-B*51:01. Described as above. To be noted: source organism: Vibrio parahaemolyticus AQ3810.
Experiment [16] deals with HLA-A*03:01. The experiment is described as above. To be noted: source organism: Vibrio parahaemolyticus AQ3810.
The target in experiment [17] is HLA-B*58:01. Put plainly: IEDB peptide-MHC binding, purified MHC/competitive/fluorescence; filed as Kd, often an IC50 or EC50 that approximates it; ≥ and ≤ were set here for values at or beyond the usual limits of such assays. The following applies: source organism: Vibrio parahaemolyticus AQ3810.
Experiment [18] has as its target HLA-B*40:01. Described as above. The following applies: source organism: Vibrio parahaemolyticus AQ3810.
For experiment [19], the target named is HLA-B*07:02. The description is as above.
Experiment [20] has as its target HLA-A*01:01. The description is as above. To be noted: source organism: Vibrio parahaemolyticus AQ3810.
Experiment [21] deals with HLA-B*08:01. The experiment is described as above. The following applies: source organism: Vibrio parahaemolyticus AQ3810.
The target in experiment [22] is HLA-B*27:05. The description is as above. The following applies: source organism: Vibrio parahaemolyticus AQ3810.
For experiment [23], the target named is HLA-A*11:01. Described as above. To be noted: source organism: Vibrio parahaemolyticus AQ3810.
In experiment [24] the target is HLA-B*53:01. The experiment is described as above. The following applies: source organism: Vibrio parahaemolyticus AQ3810.
The target in experiment [25] is HLA-B*44:02. The experiment is described as above. To be noted: source organism: Vibrio parahaemolyticus AQ3810.
Experiment [26] addresses HLA-B*14:02. Described as above. The following applies: source organism: Vibrio parahaemolyticus AQ3810.
Experiment [27] addresses HLA-A*66:01. The description is as above. The following applies: source organism: Vibrio parahaemolyticus AQ3810.
The target in experiment [28] is HLA-A*30:02. The experiment is described as above. The following applies: source organism: Vibrio parahaemolyticus AQ3810.
For experiment [29], the target named is HLA-A*30:01. The experiment is described as above.
The target of experiment [30] is HLA-A*02:01. The experiment is described as above. To be noted: source organism: Human immunodeficiency virus 1.
Experiment [31] addresses HLA-B*15:09. The experiment is described as above. The following applies: source organism: Human immunodeficiency virus 1.
In experiment [32] the target is HLA-B*08:02. Described as above. To be noted: source organism: Human immunodeficiency virus 1.
Experiment [33] deals with HLA-A*02:06. The experiment is described as above. The following applies: source organism: Human immunodeficiency virus 1.
Experiment [34] has as its target HLA-A*68:02. The description is as above. To be noted: source organism: Human immunodeficiency virus 1.
Experiment [35] deals with HLA-A*26:01. The description is as above. The following applies: source organism: Human immunodeficiency virus 1.
Experiment [36] deals with HLA-A*26:02. The description is as above. To be noted: source organism: Human immunodeficiency virus 1.
Experiment [37] addresses HLA-A*02:03. The experiment is described as above. To be noted: source organism: Human immunodeficiency virus 1.
Experiment [38] addresses HLA-B*15:01. The experiment is described as above. To be noted: source organism: Human immunodeficiency virus 1.
Experiment [39] addresses HLA-B*08:03. The experiment is described as above. The following applies: source organism: Human immunodeficiency virus 1.
In experiment [40] the target is HLA-B*39:01. The experiment is described as above. To be noted: source organism: Human immunodeficiency virus 1.
[41] abbreviates: source organism: Vibrio parahaemolyticus AQ3810.
The mark [42] stands for this setting: source organism: Human immunodeficiency virus 1.

Turning to HQFTSNPEV, the Kd in [1] was at least 20 µM; in experiment [2] it was at least 20 µM; in [3], at least 20 µM; in [4], 0.004 µM; in experiment [5], at least 20 µM; in [6], 0.008 µM. Besides, the Kd in experiment [7], in experiment [8], in [9], in experiment [10], in [11] and in experiment [12] was at least 20 µM each time. The Kd in experiment [13] was at least 20 µM; in experiment [14], at least 20 µM; in experiment [15], at least 20 µM; in experiment [16], at least 20 µM; in experiment [17], at least 5 µM; in [18], 0.416 µM. The Kd in experiment [19] (setting [41]), in [20], in [21], in experiment [22], in experiment [23] and in [24] was at least 5 µM each time. For the same sequence, the Kd in [25], in [26], in experiment [27], in experiment [28] and in experiment [29] (setting [41]) was at least 5 µM each time.
In the case of EVKSLFNTV, the Kd is at least 20 µM in experiment [19] (setting [42]); at least 20 µM in experiment [30]; at least 20 µM in [31]; at least 20 µM in experiment [32]; 0.0849 µM in experiment [33]; 0.0004 µM in experiment [34]. In addition, the Kd was at least 20 µM in experiment [35], 0.199 µM in [36], at least 20 µM in experiment [37] and at least 20 µM in [29] (setting [42]).
As to EIKDTEEAL, the Kd was at least 20 µM in experiment [30]; 0.183 µM in experiment [34]; at least 20 µM in experiment [38]; at least 20 µM in experiment [36]; at least 20 µM in [39]; at least 20 µM in [40].

For orientation: Kd means the constant that tells how readily two partners part at equilibrium.

(Values after the Immune Epitope Database (IEDB).)
